US20220112250A1

Molecular target: Rat CaV2.2 channel (α1B splice variant e37a, α2δ1 and β3) expressed in HEK293T cells (rat) (UniProt Q02294)
Assay: cell-based or functional assay

Sequence of UniProt Q02294 (Q02294 other isoform, or with tags, fused parts or gaps mutant, chain 1 of 3): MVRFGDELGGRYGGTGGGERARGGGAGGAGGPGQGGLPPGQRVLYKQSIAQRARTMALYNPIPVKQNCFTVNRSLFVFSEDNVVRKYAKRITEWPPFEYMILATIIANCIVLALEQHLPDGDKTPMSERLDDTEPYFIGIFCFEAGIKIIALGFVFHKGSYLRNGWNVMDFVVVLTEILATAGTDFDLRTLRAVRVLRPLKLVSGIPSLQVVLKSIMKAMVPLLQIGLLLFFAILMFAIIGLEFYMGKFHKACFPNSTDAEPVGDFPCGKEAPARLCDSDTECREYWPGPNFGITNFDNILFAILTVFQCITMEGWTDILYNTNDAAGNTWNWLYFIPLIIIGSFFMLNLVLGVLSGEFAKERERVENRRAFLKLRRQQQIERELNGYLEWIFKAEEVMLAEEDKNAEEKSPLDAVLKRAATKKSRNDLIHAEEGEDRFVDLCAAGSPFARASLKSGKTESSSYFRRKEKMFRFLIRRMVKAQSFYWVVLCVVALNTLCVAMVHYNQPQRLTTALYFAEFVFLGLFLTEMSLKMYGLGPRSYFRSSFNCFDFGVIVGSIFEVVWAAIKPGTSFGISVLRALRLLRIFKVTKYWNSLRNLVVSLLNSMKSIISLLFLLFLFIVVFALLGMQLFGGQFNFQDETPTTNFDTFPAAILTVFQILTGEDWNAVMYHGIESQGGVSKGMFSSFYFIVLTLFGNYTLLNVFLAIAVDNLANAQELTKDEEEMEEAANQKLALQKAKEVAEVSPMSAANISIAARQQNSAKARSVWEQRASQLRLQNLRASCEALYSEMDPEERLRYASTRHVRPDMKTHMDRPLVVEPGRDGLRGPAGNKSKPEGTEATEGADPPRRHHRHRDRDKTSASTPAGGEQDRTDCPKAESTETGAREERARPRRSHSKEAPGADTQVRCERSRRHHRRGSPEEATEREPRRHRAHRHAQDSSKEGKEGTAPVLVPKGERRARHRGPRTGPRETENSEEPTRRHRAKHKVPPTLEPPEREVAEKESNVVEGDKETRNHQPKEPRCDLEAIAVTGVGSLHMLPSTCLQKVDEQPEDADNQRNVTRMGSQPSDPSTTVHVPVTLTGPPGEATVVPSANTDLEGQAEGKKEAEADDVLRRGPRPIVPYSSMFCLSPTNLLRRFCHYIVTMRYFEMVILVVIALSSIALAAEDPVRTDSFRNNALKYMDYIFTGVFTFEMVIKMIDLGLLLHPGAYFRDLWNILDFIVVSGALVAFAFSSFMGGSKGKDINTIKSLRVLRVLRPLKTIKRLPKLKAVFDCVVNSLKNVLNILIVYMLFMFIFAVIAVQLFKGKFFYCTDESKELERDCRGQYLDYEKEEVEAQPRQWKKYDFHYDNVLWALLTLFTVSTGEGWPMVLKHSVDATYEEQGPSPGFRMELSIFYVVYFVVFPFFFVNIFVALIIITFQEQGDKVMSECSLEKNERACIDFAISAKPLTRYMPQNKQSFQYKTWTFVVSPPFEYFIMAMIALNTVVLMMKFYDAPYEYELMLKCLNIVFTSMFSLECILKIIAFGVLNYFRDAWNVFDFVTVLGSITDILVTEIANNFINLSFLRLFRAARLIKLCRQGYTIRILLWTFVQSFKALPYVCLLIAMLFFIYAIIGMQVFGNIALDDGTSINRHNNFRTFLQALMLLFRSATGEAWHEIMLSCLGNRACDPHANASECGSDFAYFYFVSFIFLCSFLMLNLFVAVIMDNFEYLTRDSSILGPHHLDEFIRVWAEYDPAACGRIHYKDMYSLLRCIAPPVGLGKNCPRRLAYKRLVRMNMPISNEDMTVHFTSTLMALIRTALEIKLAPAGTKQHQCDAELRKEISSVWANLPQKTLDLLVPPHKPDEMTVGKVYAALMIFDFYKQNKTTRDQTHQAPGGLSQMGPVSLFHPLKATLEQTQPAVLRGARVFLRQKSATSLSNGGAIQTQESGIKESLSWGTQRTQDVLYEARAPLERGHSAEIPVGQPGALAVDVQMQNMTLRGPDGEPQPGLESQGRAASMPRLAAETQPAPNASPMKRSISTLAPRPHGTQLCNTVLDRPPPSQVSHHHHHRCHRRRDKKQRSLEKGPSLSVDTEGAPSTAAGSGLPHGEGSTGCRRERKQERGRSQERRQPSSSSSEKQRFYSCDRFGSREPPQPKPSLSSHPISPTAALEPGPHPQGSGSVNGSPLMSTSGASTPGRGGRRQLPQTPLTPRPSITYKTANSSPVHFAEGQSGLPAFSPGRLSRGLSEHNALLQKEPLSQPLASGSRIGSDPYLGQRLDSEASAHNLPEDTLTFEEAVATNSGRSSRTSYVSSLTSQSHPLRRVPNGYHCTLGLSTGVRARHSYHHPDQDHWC
Sequence of UniProt Q02294 (P54290 25-1091, stated change not applied, chain 2 of 3, further chain): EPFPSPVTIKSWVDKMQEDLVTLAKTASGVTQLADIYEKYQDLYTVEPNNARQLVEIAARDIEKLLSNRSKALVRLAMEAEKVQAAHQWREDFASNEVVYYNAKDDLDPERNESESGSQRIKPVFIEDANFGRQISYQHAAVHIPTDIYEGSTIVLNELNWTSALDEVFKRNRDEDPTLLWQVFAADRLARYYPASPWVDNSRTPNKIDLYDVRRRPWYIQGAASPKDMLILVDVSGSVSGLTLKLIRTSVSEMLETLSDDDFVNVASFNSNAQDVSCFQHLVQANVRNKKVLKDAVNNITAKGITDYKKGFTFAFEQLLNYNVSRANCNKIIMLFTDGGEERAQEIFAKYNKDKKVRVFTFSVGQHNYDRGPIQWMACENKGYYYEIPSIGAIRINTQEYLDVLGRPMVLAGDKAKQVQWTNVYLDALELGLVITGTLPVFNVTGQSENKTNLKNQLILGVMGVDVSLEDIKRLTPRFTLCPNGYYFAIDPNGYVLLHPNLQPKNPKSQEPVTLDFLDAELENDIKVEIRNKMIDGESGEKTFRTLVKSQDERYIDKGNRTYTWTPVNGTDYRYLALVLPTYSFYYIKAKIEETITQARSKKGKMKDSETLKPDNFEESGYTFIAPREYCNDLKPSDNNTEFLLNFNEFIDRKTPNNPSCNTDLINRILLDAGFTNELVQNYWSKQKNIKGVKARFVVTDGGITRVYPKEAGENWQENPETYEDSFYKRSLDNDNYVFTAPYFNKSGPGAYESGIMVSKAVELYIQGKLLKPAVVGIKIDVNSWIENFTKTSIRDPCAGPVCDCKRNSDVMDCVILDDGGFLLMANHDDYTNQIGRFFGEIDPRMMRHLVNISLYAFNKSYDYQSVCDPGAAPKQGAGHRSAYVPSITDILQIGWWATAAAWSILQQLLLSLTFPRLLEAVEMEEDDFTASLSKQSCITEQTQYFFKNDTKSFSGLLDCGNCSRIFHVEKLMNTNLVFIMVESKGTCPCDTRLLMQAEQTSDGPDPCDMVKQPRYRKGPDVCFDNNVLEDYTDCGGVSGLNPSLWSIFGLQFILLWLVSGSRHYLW
Sequence of UniProt Q02294 (P54287 whole entry, stated change not applied, chain 3 of 3, further chain, canonical isoform): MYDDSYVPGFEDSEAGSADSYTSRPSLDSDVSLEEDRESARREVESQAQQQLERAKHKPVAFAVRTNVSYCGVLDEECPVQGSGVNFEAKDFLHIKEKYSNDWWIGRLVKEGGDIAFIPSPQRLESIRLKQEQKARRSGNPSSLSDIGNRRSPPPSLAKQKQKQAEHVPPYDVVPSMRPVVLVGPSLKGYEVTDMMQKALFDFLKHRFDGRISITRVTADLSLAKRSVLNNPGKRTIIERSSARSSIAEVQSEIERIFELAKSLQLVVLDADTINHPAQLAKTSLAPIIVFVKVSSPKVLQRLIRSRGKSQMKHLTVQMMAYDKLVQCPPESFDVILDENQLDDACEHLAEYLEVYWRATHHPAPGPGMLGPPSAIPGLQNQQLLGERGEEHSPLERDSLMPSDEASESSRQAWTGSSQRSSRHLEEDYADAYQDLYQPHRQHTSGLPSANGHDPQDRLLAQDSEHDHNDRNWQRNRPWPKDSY

With MVIIA (ziconotide) (peptide) the half inhibitory concentration of CaV2.2 channel current was 0.0436 µM.
